# In US20210210159A1, “COMPUTATIONAL PROTEIN DESIGN USING TERTIARY OR QUATERNARY STRUCTURAL MOTIFS” (Trustees of Dartmouth College, priority 2018, published 2021):
# Experiments:
# [1] = Fast Protein Liquid Chromatography / size-exclusion chromatography, oligomeric state; format: physicochemical; details: concentration of at least 10 μM
# From the text: Based on the standards, the dimeric protein would be expected to elute at the volume indicated by a dotted line, which eliminates the possibility of design oligomerization.
# [2] = Chemical denaturation by guanidinium hydrochloride (GuHCl), chromophore absorbance at 587 nm; format: physicochemical; details: compared with original mCherry
# From the text: Degree of foldedness was monitored via chromophore absorbance at 587 nm. Because the chromophore rapidly […], this constitutes a sensitive metric of structure. Data are fit to the Hill equation, with the concentration of half denaturation noted in the legend.
# Thus, by all measures, the designed protein, which differs from the original mCherry in 48 positions, preserved the starting structure and even function.
molecule,measurement,setting,value
"design: TERM-based surface-redesigned mCherry, 48 of 64 variable surface positions changed (SEQ ID NO. 2) (protein, TERM-based designed sequence) MVSKGEEDNMAIIKEFMTFEVEMEGTVNGHPFRIRGSGGGDPYEGTQTARLEVVEGGPLPFAWDILSPQFMYGSKAYVKHPADIPDYLKLSFPEGFTWTRTMEFEDGGTVKVTQTSTLKDGKFHYKVKLTGSNFPSDGPVMQKKTMGWEASTERMRPKDGKLEGEIDQELRLKDGGYYRARVRTTYKAKKPVQLPGAYTVRIRLEITSHNEDYTEVEQTETAKGEHSTGGMDELYK",oligomeric state in solution,[1],monomeric
same,protection of chromophore on chemical denaturation,[2],approximately as well as the original mCherry
